Measured values published in the DeepSol protein solubility set.

Test: soluble on expression in E. coli; label from the status in PepcDB or PDB records

| Sequence | soluble on expression in E. coli |
| --- | --- |
| MKYKSVFDIIGPVMVGPSSSHTAGAVRIGLVARKLFGRKPTWARISFYGSFAETYRGHGTDVAIVAGLLGFDTFDERLPNALEIAQAEGVDVSFSAEEAIPHHPNTARLRIGDDEGELELVGISIGGGKIEIVELNGFALKLSGHHPALLIMHNDRYGTIGAVASVLAKRKINIGHMEVSRKEKGKEALMAIEVDQPLTDDLIQELEQLPNIIQVAKLAD | not soluble |
| MDQALYSLETRFEQFQRYEQIFGFLFDLKKLQSASDDSLMASCTNLKDALTHGTHSDILASDLFYELKILREALPKEVRRPIEVLDFLQKVEGCYPNSWIAYQVLLTIPVSVASAERSFSKLKLIKSYLRSSMSQERLSDLAILSIERALVREVDFERLANDFVGKKGRRITL | soluble |
| MGSDKIHHHHHHMKKYHYSQAPLPFVGQKRMFASEFRKVLKRFSDRTVFVDLFGGSGLLSHITKRERPDATVIYNDHDNYRERLENISRTNALLSDLRRLSEGIPRHRMLSKKMHGMFLERIRREESTGFVDYLTISSSLLFSGKYARNIGELGKLNFYNNMRLSDYCCEGYLDGLEVVYCDYRELVDRYRDSPDVVFLIDPPYMATDISTYRMDWKLTDYLDVLLVLEGHPFIYFTSGKSPILDFCRWMEEHPETGNPFKGAGISTLTARMNYSSSYTDIMLYKEMTEAA | not soluble |
| MSLDFWLYKQAQQNGHHIAITDGQESYTYQNLYCEASLLAKRLKAYQQSRVGLYIDNSIQSIILIHACWLANIEIAMINTRLTPNEMTNQMRSIDVQLIFCTLPLELRGFQIVSLDDIEFAGRDITTNGLLDNTMGIQYDTSNETVVPKESPSNILNTSFNLDDIASIMFTSGTTGPQKAVPQTFRNHYASAIGCKESLGFDRDTNWLSVLPIYHISGLSVLLRAVIEGFTVRIVDKFNAEQILTMIKNERITHISLVPQTLNWLMQQGLHEPYNLQKILLGGAKLSATMIETALQYNLPIYNSFGMTETCSQFLTATPEMLHARPDTVGMPSANVDVKIKNPNKEGHGELMIKGANVMNGYLYPTDLTGTFENGYFNTGDIAEIDHEGYVMIYDRRKDLIISGGENIYPYQIETVAKQFPGISDAVCVGHPDDTWGQVPKLYFVSESDISKAQLIAYLSKHLAKYKVPKHFEKVDTLPYTSTGKLQRNKLYREGHHHHHH | soluble |
| MSLSWDQVWIDVNVATMDPSISAPYGAITNAAIAVKDGKIAWLGPRSELPAFDVLSIPVYRGKGGWITPGLIDAHTHLVFAGNRANEFELRLKGATYEEIARAGGGIISTVNACREADEAELFDLGRQRLNALAKEGVTTVEIKSGYGLDTETELKILRVARELGQHHHVDVKTTFLGAHAVPPEFKDNSDGYVDLIINKMLPAVIAENLADAVDVFCENIAFNLEQTERVLSTAKAAGLQVKLHAEQLSNMGGSELAARLGAKSVDHIEYLDEAGVKALSESGTCAVLLPGAFYFLRETQKPPIDLLRQYGVPMVLASDFNPGSSPICSTLLMLNMGCTLFRLTPEEALAGLTLNAAKALGIEDNVGSLVVGKQADFCLWDIATPAQLAYSYGVNPCKDVVKNGKLIHQEGHHHHHH | soluble |
| MRERGVAFFSGGKDGLYALYLAEKEGIEVPYLLTLKTSIGLSPHWENLSSLKALAENMGKKLLTFDMKYGSKALAEFISSLDVDYIIAGDVFLEDHLKWINLLAEKAGIKSFEPLWGKNTLELAKEMLNAGFKYSIIAVDKNKLEKTWLGYTFSSTRDIEIFIYENPTIDPLGEGGEFHTITLSSPLFKDEFTLEKISVEESERYWWMRFRVVGNDIKNVRVKGHNSRKDGLEHHHHHH | soluble |
| MGSDKIHHHHHHMVVDGPRDPRMNMAIDEAILRVGAAPTLRIYMWLPGGLTLGRRQSVEDVNLAEAEKRGYVLVRRPTGGAALLHPWEREITYSLVLDSRHPYYSLDVAESAATIAGGVALALEELGIATRVGGYTPPPGVIGGLCYVRPGSSDVVVAGRKVSGSAQRRIGGRLLQHGTLLLRFDPEEWLSIIPVKGAGPSDLASRIAGIEDLAGRSYSFSEVADALVKGFSKALGLEPEPSGLEGREVEEALRLYRKKYSSPRWNLEGDEP | not soluble |
| MAHHHHHHMKLEEVKDIQKIERIGAHSHIRGLGLNDCLDARYCSEGMIGQMSARKAAGIVLRMIKEGRISGRAILLAGQPGTGKTAIAMGIAKALGEDTPFTHISGSEVYSLEMSKTEALTQAFRRSIGVRVKEESEVIEGEVVEIEIEKFNERDINNKNKKLGKMILKTTEMETLYDLGSKMIEALQKENITAGDVICIDKGTGKITKIGKSFARSKDYDAMDPNTLFVQCPEGELQKRKEVVHTVTLHDIDAINSRTQGFLALFSGDTGEIKNEIREHIDMKINEWQEDEKAEIVPGVLFIDEVHMLDIECFSYLNRALESEQSPIVIMATNRGITHIRGTDYKAPHGIPLDLLDRTLIIPTYPYKHQDILKILEQRAEEEDVDIDEYAKELLCKIASESSLRYALHLITLANLVSKKRKATEVTVQDVRRVYNLFIDVKRSTQYLIEYQNEFMFSELPKEELSVKEEDSSEEKRELHEKNSENSSTSN | soluble |
| MSLTNHQVSYFSLQDVKLLSSPFLQAQQTDLHYILALDPDRLSAPFLREAGLTPKAPSYTNWENTGLDGHIGGHYLSALSMMYAATGDTAIYHRLNYMLNELHRAQQAVGTGFIGGTPGSLQLWKEIKAGDIRAGGFSLNGKWVPLYNIHKTYAGLRDAYLYAHSDLARQMLIDLTDWMIDITSGLSDNQMQDMLRSEHGGLNETFADVAEITGDKKYLKLARRFSHKVILDPLIKNEDRLNGMHANTQIPKVIGYKRVAEVSKNDKDWNHAAEWDHAARFFWNTVVNHRSVCIGGNSVREHFHPSDNFTSMLNDVQGPETCNTYNMLRLTKMLYQNSGDVDNSNKPDPRYVDYYERALYNHILSSQEPDKGGFVYFTPMRPGHYRVYSQPETSMWCCVGSGLENHTKYGEFIYAHQQDTLYVNLFIPSQLNWKEQGVTLTQETLFPDDEKVTLRIDKAAKKNLTLMIRIPEWAGNSKGYEITINGKKHLSDIQTGASTYLPIRRKWKKGDMITFHLPMKVSLEQIPDKKDYYAFLYGPIVLATSTGTENLDGEGHHHHHH | soluble |
| GETLDGEAALQAAIARLAAGDIVAIKGIGGFHLACDAGNPAAVATLRARKHRPAKPLAVMLPTATGLPAAAAALMGSPAAPIVLIAKAQVSGLCDEIAPGLAEVGVMLPSNPLQHLLLQGLARPIVMTSGNLSGRPPALSNAQALNELADIADGFLLHNRDIVQRMDDSLVRSSGEMLRRARGYVPDALPL | not soluble |
| MEKLRMNVQGRVQGVGFRYMTKMVADQLGVTGSVRNEDDGSVSITAIAPEDIMETFIKKIKDSPSPAGRVTYVDIQEDPLLEETEQFKVIQ | soluble |
| MGSDKIHHHHHHMSEENKIGTYQFVAEPFHVDFNGRLTMGVLGNHLLNCAGFHASDRGFGIATLNEDNYTWVLSRLAIELDEMPYQYEKFSVQTWVENVYRLFTDRNFAVIDKDGKKIGYARSVWAMINLNTRKPADLLALHGGSIVDYICDEPCPIEKPSRIKVTSNQPVATLTAKYSDIDINGHVNSIRYIEHILDLFPIELYQTKRIRRFEMAYVAESYFGDELSFFCDEVSENEFHVEVKKNGSEVVCRSKVIFE | not soluble |
| MSLERIEPGPDTIRVLLTTDNHVGAFENDPIRGDDAWKTFDEITTIAKDKDVDMIIQGGDLFHINKPTKKSMYHVMKSLRSNCMGDRPCELELLSDPAQSLNNGFDEINYEDPNLNISIPVFAISGNHDDATGESLLLALDVLAVTGLINNFGKVKNTEAITVSPILLQKGQTKLALYGMSNVRDERLHRLFRDGGVKFQRPNIQTEDWFNLFVIHQNHAAHTYTSSIPESFLPNFLDFILWGHEHECIPYPVHNPETTFDVLQAGSSVATSLAEGEVADKKIFILNIKGKDYSIEPVELKTVRPFVLREIILLKTDLIPGAASKADVIAYLTDEVEKSIERANKQFSEGHHHHHH | soluble |
| MIDERDKIILEILEKDARTPFTEIAKKLGISETAVRKRVKALEEKGIIEGYTIKINPKKLGYSLVTITGVDTKPEKLFEVAEKLKEYDFVKELYLSSGDHMIMAVIWAKDGEDLAEIISNKIGKIEGVTKVCPAIILEKLK | soluble |
| EIRDTKKDLKESEMRLSLALDASNMAAWHIDMDTRHIAYSDTLAVIFGYPKDTTLVWSDLVAQIYPEDMHLYQTARQQMETTGLYEYEIRIVWPDNSIKWIKTIGKMLLDSDGSQRRMIGITRDIT | not soluble |
| FTQMVIRLHIYHLVSTVSPHNVNIDASIAARGLSGEGYRGHYFWDEIYIMPFFIQHLPEVARALLMFRYHRLDAAREYARDNGYHGAMYPWQTADDGREETPTIHYNPKSGAWDPDLSCRQRHVSIAVFYNAWRYVHDTGDTEFLNSYGAEMMFEIARFWASIATFSPDDGRYHIEGVMGPDEFHEELPGSGKPGLKDNSYTNIMTAWLLEKAIEISQRLDPAVMDGLMEKIGIGHDEFMKWRDISGKMNVLIDQNGILEQFDGYMGLKELDWEHYKLKYGNIHRMDRILKAENDSPDHYKVAKQADVLMTFYTLSPAEVCAILENLGYHVADPLRFVRDNYAFYEPRTSHGSTLSKVVHSIISSYLPNGHEMAWNWFIEALRSDIHDTQGGTTPEGLHCGVMAGTIDTVT | not soluble |
| MLEGAKFNVLAVGNHHNNDNNYYAFTQEFYQKLNEGSNMSMESMQTSNAGGSVSMSVDNSSVGSSDALIGHPGLKPVRHYSLSVGQSVFRPGRVTHALNDDALAQALMDTRYPTEGLTNYDEWTIDLRKLNMGPAFAQGAFGKLYKGTYNGEDVAIKILERPENSPEKAQFMEQQFQQEVSMLANLKHPNIVRFIGACRKPMVWCIVTEYAKGGSVRQFLTRRQNRAVPLKLAVKQALDVARGMAYVHGRNFIHRDLKSDNLLISADKSIKIADFGVARIEVQTEGMTPETGTYRWMAPEMIQHRAYNQKVDVYSFGIVLWELITGLLPFQNMTAVQAAFAVVNRGVRPTVPNDCLPVLSDIMTRCWDANPEVRPCFVEVVKLLEAAETEIMTTARKARFRCCLSQPMTID | not soluble |
| MQAVNTTSGGAVGVERQQYMFSMLSTDEVNQMYAQSYQQTLGEASSKGVLDKSSADAKRVQAIANRLIAQAPKFRPDAAQWDWQVNVIKSDELNANCGPGGKIIVYTGLIDQLKLTDAEIAAVVGHEIAHALREHSREAMSKAYGVEMARQGAGAIFGLGQSSMAMADTVVNYAMTLPNSRANENEADLIGLELSARAGYDPNAAITLWNKMSKASEGAPPEFMSTHPASASRIASLQAAIPKVMPLYQAAAKPLEHHHHHH | soluble |
| MTEKDYGQVTGMVHSTESFGSVDGPGIRFIIFLQGCKLRCQYCHNPDTWEMETNNSKIRTVNDVLKEALQYKHFWGKKGGITVSGGEAMLQIDFITALFIEAKKLGIHTTLDTCGFTYRPTPEYHQVLDNLLAVTDLILLDLKEIDEKQHKIVTRQPNKNILQFARYLSDKQIPVWIRHVLVPGLTD | not soluble |
| MGSSHHHHHHGKTIFVIVPTNEEQVAFLEALAKQDELNFDWQNPPTEPGQPVVILIPSDMVEWFLEMLKAKGIPFTVYVEEGGSENLYFQGGGGGGQRHAHDSAVGDKALTHKGRLRLSQNASGSAAGRCGSDDGNDSDQGGVDDDNGGAVGRRRRGAGGVLRRRRPQERGGNARRGGSDGDENSYDGDDAGGIPETDANGVKLTRLQRKKLAKEREREERRQAQEAALEAQRQRMDVNELRDAEAALREEELKAAEEAALQQLRRDKKKAEDEEYAKWVSHIGVEERGELGDEERERQTRMQSFLLDRAAQVQARARRSAAGAKSSPSEEECIHVLILQTAARDLKVSVEELVSTIEQLSQVDKVHGVFDDRGKYVFIAPEQFPLLAQFIRLRGRVSVQEFTRECNRVVMQS | soluble |
| KNVLILGAGGQIARHVINQLADKQTIKQTLFARQPAKIHKPYPTNSKIIMGDVLNHAALKQAMQGQDVVYANLTGEDLDIQANSVIAAMKACDVKRLIFVLSLGIYNEVPGKFGEWNNAVIGEPLKPFRRAADAIEASGLEYTILRPAWLTDEDIIDYELTSRNEPFKGTIVSRKSVAALITDIINKPEKHIGENIGINQPGTDG | not soluble |
